Measured values: publication PMC6338552 (Biochemistry, 2018)
Read-outs that look alike come from different tables or passages of the source. TMR = 6-carboxytetramethylrhodamine

B1: His6-JNK1α1 (enzyme, UniProt P45983-2 1-384, looked up)
chain: MSRSKRDNNFYSVEIGDSTFTVLKRYQNLKPIGSGAQGIVCAAYDAILERNVAIKKLSRPFQNQTHAKRAYRELVLMKCVNHKNIIGLLNVFTPQKSLEEFQDVYIVMELMDANLCQVIQMELDHERMSYLLYQMLCGIKHLHSAGIIHRDLKPSNIVVKSDCTLKILDFGLARTAGTSFMMTPYVVTRYYRAPEVILGMGYKENVDLWSVGCIMGEMVCHKILFPGRDYIDQWNKVIEQLGTPCPEFMKKLQPTVRTYVENRPKYAGYSFEKLFPDVLFPADSEHNKLKASQARDLLSKMLVIDASKRISVDEALQHPYINVWYDPSEAEAPPPKIPDKQLDEREHTIEEWKELIYKEVMDLEERTKNGVIRGQPSPLAQVQQ
B2: TMR-JIPtide (peptide)
peptide: {TMR}-RPKRPTTLNLF-OH

Key:
Assay in all cases: fluorescence polarisation
TMR-JIPtide = target: B2
His6-JNK3α1 [1] = target: T1, His6-JNK3α1 (UniProt P53779-2 1-422)
His6-JNK2α1 [2] = target: T2, His6-JNK2α1 (UniProt P45984-2 1-382)
His6-JNK1α1 [3] = target: B1
His6-JNK3α1 [4] = target: T1, His6-JNK3α1; remark: listed apart in the source
His6-JNK2α1 [5] = target: T2, His6-JNK2α1; remark: listed apart in the source
His6-JNK1α1 [6] = target: B1; remark: listed apart in the source
His6-JNK3α1 [7] = target: T1, His6-JNK3α1; remark: listed apart in the source
His6-JNK2α1 [8] = target: T2, His6-JNK2α1; remark: listed apart in the source
His6-JNK1α1 [9] = target: B1; remark: listed apart in the source
His6-JNK3α1 [10] = target: T1, His6-JNK3α1; remark: listed apart in the source
His6-JNK2α1 [11] = target: T2, His6-JNK2α1; remark: listed apart in the source
His6-JNK1α1 [12] = target: B1; remark: listed apart in the source
His6-JNK3α1 [13] = target: T1, His6-JNK3α1; remark: listed apart in the source
His6-JNK2α1 [14] = target: T2, His6-JNK2α1; remark: listed apart in the source
His6-JNK1α1 [15] = target: B1; remark: listed apart in the source
His6-JNK3α1 [16] = target: T1, His6-JNK3α1; remark: listed apart in the source
His6-JNK2α1 [17] = target: T2, His6-JNK2α1; remark: listed apart in the source
His6-JNK1α1 [18] = target: B1; remark: listed apart in the source
His6-JNK3α1 [19] = target: T1, His6-JNK3α1; remark: listed apart in the source
His6-JNK2α1 [20] = target: T2, His6-JNK2α1; remark: listed apart in the source
His6-JNK1α1 [21] = target: B1; remark: listed apart in the source
His6-JNK3α1 [22] = target: T1, His6-JNK3α1; remark: listed apart in the source

## B1
TMR-JIPtide
  fold tighter binding than apo-JNK1: 2 fold

## B2
His6-JNK3α1 [1]
  Kd: 480 nM
His6-JNK2α1 [2]
  Kd: 4600 nM
His6-JNK1α1 [3]
  Kd: 230 nM
His6-JNK3α1 [4]
  Kd: 1500 nM
His6-JNK2α1 [5]
  Kd: 5100 nM
His6-JNK1α1 [6]
  Kd: 440 nM
His6-JNK3α1 [7]
  Kd: 1700 nM
His6-JNK2α1 [8]
  Kd: 37000 nM
His6-JNK1α1 [9]
  Kd: 680 nM
His6-JNK3α1 [10]
  Kd: 640 nM
His6-JNK2α1 [11]
  Kd: 3000 nM
His6-JNK1α1 [12]
  Kd: 250 nM
His6-JNK3α1 [13]
  Kd: 12000 nM
His6-JNK2α1 [14]
  Kd: 17000 nM
His6-JNK1α1 [15]
  Kd: 14000 nM
His6-JNK3α1 [16]
  Kd: 4600 nM
His6-JNK2α1 [17]
  Kd: 15000 nM
His6-JNK1α1 [18]
  Kd: 3200 nM
His6-JNK3α1 [19]
  Kd: 2800 nM
His6-JNK2α1 [20]
  Kd: 6000 nM
His6-JNK1α1 [21]
  Kd: 1500 nM
His6-JNK3α1 [22]
  Kd: 1900 nM
